The source of these data is US20030119772A1.

In this assay the target is ZEB expressed in NIH 3T3 cells in the p21 promoter luciferase reporter assay. Briefly: cell-based or functional assay.

For the substance “53BP1 co-expressed in NIH 3T3 cells in the p21 promoter luciferase reporter assay”, the p21-promoter-driven luciferase reporter in NIH 3T3 cells, relative light units was determined as 2 fold.

CtBP1 displayed a p21-promoter-driven luciferase reporter (p53-mediated transactivation) in NIH 3T3 cells of 4 fold.
